According to the DeepSol protein solubility set:

experiment: soluble on expression in E. coli; label from the status in PepcDB or PDB records

| Sequence | soluble on expression in E. coli |
| --- | --- |
| MGSSHHHHHHSSGLVPRGSHMIMIHIKAIHDLTVPLETYMPIWPTNPLLEIKPVGTVARDGYKIETISGSTHSGTHIDAPAHMLENGITIDQIDPIRFIGTGYCIKTIPDGNFVRSTHLIEKWKEEYDGSIILIETGWYKKRGFTREFQYEFPGLTEDAAEFLIERNVKLVGIDTLGIEPYQDSDFHVHKKLLSKGIPFIEDLYGLDDLEEGKPYLVVALPLKMKGASGSMARVMALEMD | soluble |
| MSSSTSQDFVSRPVIKKVFAKLQKEGDGAVVRRGISRSEQKLLDPFLMLDEFSVSPPAGFPDHPHRGITHQDFKGHKGTIYAGDVQWMTAGRGIIHSEMPEEEVNKEPNYQELSHSDIPKAEQNGVEVKVIAGESMGIQSPVYTRTPTMFLDFTLQPGAQIHQNVPESWNAFAYILESGEGGGVFSSSNSSPIPAHSVVVFGPGNDGVSVWNKSSSKQLRFVLIAGEPIGEPVVQYGPFVMNTQAEIDMTIEDYHYGKNGFEMAKYWRSQ | not soluble |
| MSLKKTTWFAGRFPGYVSPLSSVALSVLAALCPLTSRGESYFNPAFLSADTASVADLSRFEKGNHQPPGIYRVDIWRNDEFVATQDIRFEAGAVGTGDKSGGLMPCFTPEWIKRLGVNTAAFPVSDKGVDTTCIHLPEKIPGAEVAFDFASMRLNISLPQASLLNSARGYIPPEEWDEGIPAALINYSFTGSRGTDSDSYFLSLLSGLNYGPWRLRNNGAWNYSKGDGYHSQRWNNIGTWVQRAIIPLKSELVMGDSNTGNDVFDSFGFRGARLYSSDNMYPDSLQGYAPTVRGIARTAAKLTIRQNGYVIYQSYVSPGAFAITDLNPTSSSGDLEVTVDEKDGSQQRYTVPYSTVPLLQREARVKYDLVAGDFRSGNSQQSSPFFFQGTVIAGLPAGLTAYGGTQLADRYRAVVVGAGRNLGDWGAVSVDVTHARSQLADDSTHQGQSLRFLYAKSLNNYGTNFQLLGYRYSTRGFYTLDDVAYRSMEGYDYEYDSDGRRHKVPVAQSYHNLRYSKKGRFQVNISQNLGDYGSLYLSGSQQNYWNTADTNTWYQLGYASGWQGISYSLSWSWSESVGSSGADRILAFNMSVPFSVLTGRRYARDTILDRTYATFNANRNRDGDNSWQTGVGGTLLEGRNLSYSVTQGRSSSNGYSGSASASWQATYGTLGVGYNYDRDQHDYNWQLSGGVVGHADGITFSQPLGDTNVLIKAPGAKGVRIENQTGVKTDWRGYAVMPYATVYRYNRVALDTNTMDNHTDVENNVSSVVPTEGALVRAAFDTRIGVRAIITARLGGRPLPFGAIVRETASGITSMVGDDGQIYLSGLPLKGELFIQWGEGKNARCIAPYALAEDSLKQAITIASATCIRPASEGGSHHHHHH | soluble |
| AHHHHHHGSKKRLPASRVYIKDILEGYFVKSEGDFEPNYLITKDARKIYRAKIVGTVIREPLIAEDETYGKFQIDDGTGVIWVLGFRDDTKFAKLVKKGDLVQVIGKIAEWRDDKQILVEGVAKVHPNMWILHRYETLKEKIEHARKAKIAFEIYNTYGITAKSKVIAKNKGVPEELLETIDELYGIIMEEKAMEEPVEELIEEEITEEGKEENEILEKVKQEILEILRSKKIAVSRKYILKKLGEKYDEETIEDAIAELLADGEIYEPETGYYKLL | not soluble |
| MARNPRTTVRRILNSAPRSLLIQSVTIVALDPTDNNHGSHQPGSNGPSNSSTQADNFETETTADEERQKEDGVEDELEDEETTGFIDEDGEIRYPVDEVGNYEIDQEAETDESFYLDTQRDSSLCDERSQLCRSLSDQNLRTTFFLITTTNSKAAILRYLHFHNVSQDSILRKLLLNDSHLTLVEVCNLCAQNIELCKCEDMQEKCQLIFGDLKKWLEVILNSFANIMMKTKTTILEGYNSSSPINKGIFKKKLLSEMADNEMWMHFESSFDGIKVHKNGNQNIWPYSLLNLDLEDVHRASPQALILAALFIGFKNPTTKIHDRLTQWILLQMDEHVFFSEGVAWKADLTCANHDDPARRIVYNQCGLRSSGSCNFCLNQETECKINDEYTTLRENLTGSCPSTMNDGLRQRNQHSHFHKHVLYMHLCPHYSPKGNGICSRQNRWIFHQHLRFHLDFVRCPAKLHSVLVLRKHCIHGLYRLCIEPQSITDETLHLKQVLYHLARMTELYGSLFPLSTQWFEYFYHTIQRTLVPEIYNGLGMSIMRKMSALQEIKTEAAFRLHTNHQFRTEANLKMCYELGLLRRLKRISVVPTPPQYQQFCETGDVFLNVVYHDGIRYSNYCNKKTDDSNVTFIEYARVRFAKIIGMLLKENNTDLRFILKKYCNTNDHLIDISNKLYEEDVPQMHIQNWVDSVSKSSFGGRVTLTNTVVVVSADSIVGHAVVVKRNNNCVALPFSRRISLS | not soluble |
| MIMQEIFLCSISNVRSGDCKEDCAYCTQSSHHQGAIKRYKFKDEKVVLQEARALRQLGALGFCLVTSGRELDDEKCEYIAKLAKAINQEELGLHLIACCGRADLEQLEFLRDAGIHSYNHNLETSQNFFPKICSTHTWEERFITCENALRAGLGLCSGGIFGLNESWEDRIEMLRALASLSPHTTPINFFIKNPVLPIDAETLSADEALECVLLAKEFLPNARLMVAGGREVVFKDNDKKEAKLFEYGINAVVLGDYLTTKGKAPKKDIEKLLSYGLTMATSCHLEHHHHHH | not soluble |
| GPGSMLRPSSLCRVAFPVHRDTTKTPRLVKEVGSWLYKRETVESFRAWCKANNVRGSGNVKVVSTMHYARCLRAARHLRPGQAIITLPHTACFNFLVVAKEMYGVSGKGGTVSHNFPLEVNWMNYDERCSFLRSASMSELTTAGWMCRIASLEESRFTPYIHWLLEDTRGRDGVANGVSRERGEESGLVDHYFSEMATDACEDPEEFLENLFRSFAALHLRAVPIESAAIRLFLPGTNFFKAKVDEMFVPTLMPLIDAVPQLEDGLHNTAVEYFPFSDEETLLKQCKDLVLSEGGTNEMRELRRRCLAQEQGAGAFFALRALCPIEEGDYLYVRGVPKLGAPEQESMTVRVMEANRLLNNE | not soluble |
| MGKNEILWGIAPIGWRNDDMPEIGAGNTLQHLLSDIVVARFQGTEVGGFFPEPAILNKELKLRNLRIAGKWFSSFILRDGLGEAAKTFTLHCEYLQQVNADVAVVSEQTYSVQSLEKNVFTEKPHFTDDEWERLCEGLNHLGEIAAQHGLKLVYHHHLGTGVQTAEEVDRLMAGTDPAHVHLLYDTGHAYISDGDYMGMLEKHIGRIKHVHFKDARLNVMEQCRLEGQSFRQSFLKGMFTVPGDGCIDFREVYQLLLKHSYSGWIVIEAEQDPDVANPLEYALIARNYIDQQLLDLAMGHHHHHHSH | soluble |
| VEYSKDRLEMEIVMAAERLDITEECIRFSSHNKFFIEELNNSSSGSGRKLNFLLQEQLREANTIASKSQNADISQKVVHIKEELEKVREQLQNIE | not soluble |
| SLVHKKIVVPSATDMATRFTQDSFVFDCLSMYYVIDDPWAENCLAAGVNATNVTFGTEQPWDIVLRDFDSGLEKIERSPYLALATNRQEIDAANKQGKLAVIIGTQGSAMVDLEFHRLRTMHRLGMRYFGLAYTGPTMFADGCGESRNAGLSFAGIELIDACNDLGLILDLSHVGHRSREEAVARSRFPVYTHSNSYALNPNDRNTTDETARAIRAKGGIMGICGLPKTVHPENATLNELLDHADHWVKTIDAAHVGFGLDFVEAYKSDRSTMPAASRLWRTRRPDIFGTVEEFHLQDYPLGIASIKQLPNLTQGLFDRGYAEKEVAGIIGGNWLRHFTEVYG | soluble |
| RSTDTFNYATYHTLEEIYDFLDLLVAENPHLVSKIQIGNTYEGRPIYVLKFSTGGSKRPAIWIDTGIHSREWVTQASGVWFAKKITQDYGQDAAFTAILDTLDIFLEIVTNPDGFAFTHSTNRMWRKTRSHTAGSLCIGVDPNRNWDAGFGLSGASSNPCSETYHGKFANSEVEVKSIVDFVKDHGNIKAFISIHSYSQLLMYPYGYKTEPVPDQDELDQLSKAAVTALASLYGTKFNYGSIIKAIYQASGSTIDWTYSQGIKYSFTFELRDTGRYGFLLPASQIIPTAKETWLALLTIMEHTLNHP | soluble |
| RLHSDNVYLIENNVFGTTCARVGCMPSKLLIAAAEARHHALHTDPFGVHLDKDSIVVNGEEVMQRVKSERDRFVGFVVADVEEWPADKRIMGSAKFIDEHTVQIDEHTQITAKSFVIATGSRPVILPQWQSLGNRLIINDDVFSWDTLPKRVAVFGPGVIGLELGQALHRLGVKVE | not soluble |
